In patent publication US20050113293A1:
[ ]: non-standard residue; d: D form. Hyp = O=C(O)[C@@H]1C[C@@H](O)CN1

What was measured:
[1] = target: binding site for [125I]AAP10 on intact CHO cells (AAP receptor); test: in situ displacement of [125I]AAP10 on intact CHO cells
[2] = target: binding site for [125I]AAP10 in murine heart tissue preparations (AAP receptor) (mouse); test: displacement of 0.8 nM [125I]AAP10, murine heart membranes
[3] = target: binding site for [125I]AAP10 in murine heart tissue preparations (AAP receptor) (mouse); test: displacement of 0.8 nM [125I]AAP10, murine heart filtrate
[4] = target: binding site for [125I]AAP10 on intact CHO cells (AAP receptor); test: cell-based or functional assay

Molecule | IC50 [1] [nM] | IC50 [2] [nM] | IC50 [3] [nM] | Inhibition of forskoline stimulated cAMP formation in CHO cells, EC50 [4] [nM]
Ac-D-Tyr(3,5-di-I)-D-Pro-D-Hyp-Gly-D-Ala-Gly-NH2 (Compound 24) (peptide) | 65 | – | – | –
Ac-D-Tyr-D-Pro-D-4Hyp-Gly-D-Ala-Gly-NH2 (Compound 2) (peptide) | 0.5 | 1.2 | 3.6 | 6.2
H-GAG[Hyp]PY-NH2 [H-Gly-Ala-Gly-Hyp-Pro-Tyr-NH2 (AAP10)] | 130 | – | 1.2 | 11
H-GP[Hyp]GAG-OH (SMILES C[C@H](NC(=O)CNC(=O)[C@@H]1C[C@@H](O)CN1C(=O)[C@@H]1CCCN1C(=O)CN)C(=O)NCC(=O)O) [H-Gly-Pro-Hyp-Gly-Ala-Gly-OH (AAP)] | 0.8 | – | 1.2 | 53
{ASAL(mono-iodo)}-P[Hyp]GAG-NH2 [ASAL(mono-iodo)-Pro-Hyp-Gly-Ala-Gly-NH2 (Compound 32)] | 0.5 | – | – | –
